Test results taken from PMC3479090.

Experiments:
[1] = biological target: human CD1d construct with C-terminal 3C protease site and 6X-Histidine tag, loaded with α-galactosylceramide (form used for SPR), P15813;P61769; experiment: SPR; settings: read off a plot; for koff: parent: est. 0.34; for kon: parent: est. 1.3e4
[2] = biological target: Vα24+ NKT TCR clone J24L.17 (iNKT TCR, Vα24-Jα18/Vβ11) (human); experiment: SPR; same curves as the kinetic analysis plus 9 µM and 27 µM CD1d–αGalCer; TCR on the chip; equilibrium analysis
[3] = biological target: Vα24+ NKT TCR clone J24L.17 (iNKT TCR, Vα24-Jα18/Vβ11) (human); experiment: SPR; BIAcore 3000; 300 RU of TCR captured on a Ni-NTA sensor chip, surface blocked with recombinant IgFc; CD1d–αGalCer injected (0, 0.037, 0.111, 0.333, 1, 3 µM for kinetics; series up to 27 µM) at 30 µl/min in 10 mM Hepes pH 7.4, 150 mM NaCl, 0.005% Tween-20; kinetic analysis, Langmuir 1:1 model

| koff [1] [s⁻¹] | kon [1] [M⁻¹ s⁻¹] | Kd [1] [nM] | Kd [2] [nM] | Kd [3] [nM] | koff [3] [s⁻¹] | kon [3] [M⁻¹ s⁻¹] | Substance |
| --- | --- | --- | --- | --- | --- | --- | --- |
| 0.89 | 3700 | 24000 | – | – | – | – | Vα24− TCR J24.N22 (Vα3.1-Jα18/Vβ11), soluble heterodimer with zippers and His tags N29A |
| – | 12000 | 3400 | – | – | – | – | Vα24− TCR J24.N22 (Vα3.1-Jα18/Vβ11), soluble heterodimer with zippers and His tags N51A |
| 0.51 | 12000 | 4200 | – | – | – | – | Vα24− TCR J24.N22 (Vα3.1-Jα18/Vβ11), soluble heterodimer with zippers and His tags S27A |
| 0.38 | 23000 | 1700 | – | – | – | – | Vα24− TCR J24.N22 (Vα3.1-Jα18/Vβ11), soluble heterodimer with zippers and His tags S50A |
| 0.52 | 30000 | 1700 | – | – | – | – | Vα24− TCR J24.N22 (Vα3.1-Jα18/Vβ11), soluble heterodimer with zippers and His tags S97A |
| – | – | – | 1900 | 2100 | 0.414 | 194000 | human CD1d construct with C-terminal 3C protease site and 6X-Histidine tag, loaded with α-galactosylceramide (form used for SPR) (from UniProt P15813 20-335; P61769 21-119) (complex) |
